Legend:
Conditions in all cases: both partners purified
[1] = target: T1, Vam3-GST (cytoplasmic domain of Vam3, aa1-264) (S. cerevisiae, UniProt Q12241 1-264); experiment: pull-down; SNARE complex assembly: 125 pmol GST-tagged Qa-SNARE on glutathione sepharose 4B; >=fivefold molar excess of Qb-, Qc- and R-SNAREs overnight at 4°C; SM Assay Buffer (20 mM HEPES, 150 mM NaCl, 2 mM 2-mercaptoethanol, 0.05% Anapoe-X-100, pH 7.4); washed
T1 construct: Vam3, vacuole Qa-SNARE, S. cerevisiae, cytoplasmic domain aa1-264, no transmembrane domain; TEV site between SNARE and GST; also called Vam3 cytoplasmic domain; vacuole Qa-SNARE; not shown: GST, C-terminal, kept
T1 sequence (looked up): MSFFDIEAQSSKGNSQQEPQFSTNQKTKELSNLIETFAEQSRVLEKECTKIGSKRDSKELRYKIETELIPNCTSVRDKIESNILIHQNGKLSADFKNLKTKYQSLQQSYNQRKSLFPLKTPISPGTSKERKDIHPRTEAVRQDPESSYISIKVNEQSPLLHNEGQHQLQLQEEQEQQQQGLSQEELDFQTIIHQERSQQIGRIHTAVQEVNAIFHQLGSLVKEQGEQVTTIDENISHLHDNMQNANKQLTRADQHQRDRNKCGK

[2] = target: T1, Vam3-GST (cytoplasmic domain of Vam3, …); experiment: pull-down; re-assembly with added SNAREs: as a9, but soluble Qb, Qc and R-SNAREs (~3 µM each) added along with the EDTA quench, 30 min at 30°C
[3] = target: T2, GST-Sed5 full cytoplasmic domain (aa1-319) (S. cerevisiae, UniProt Q01590 1-319); experiment: pull-down; SNARE complex assembly: 125 pmol GST-tagged Qa-SNARE on glutathione sepharose 4B; >=fivefold molar excess of Qb-, Qc- and R-SNAREs overnight at 4°C; SM Assay Buffer (20 mM HEPES, 150 mM NaCl, 2 mM 2-mercaptoethanol, 0.05% Anapoe-X-100, pH 7.4); washed
T2 construct: Sed5, Golgi Qa-SNARE, S. cerevisiae, full cytoplasmic domain aa1-319 with N-peptide and Habc segments, no transmembrane domain; also called GST-Sed5FL; Sed5FL; not shown: GST, N-terminal, kept
T2 sequence (looked up): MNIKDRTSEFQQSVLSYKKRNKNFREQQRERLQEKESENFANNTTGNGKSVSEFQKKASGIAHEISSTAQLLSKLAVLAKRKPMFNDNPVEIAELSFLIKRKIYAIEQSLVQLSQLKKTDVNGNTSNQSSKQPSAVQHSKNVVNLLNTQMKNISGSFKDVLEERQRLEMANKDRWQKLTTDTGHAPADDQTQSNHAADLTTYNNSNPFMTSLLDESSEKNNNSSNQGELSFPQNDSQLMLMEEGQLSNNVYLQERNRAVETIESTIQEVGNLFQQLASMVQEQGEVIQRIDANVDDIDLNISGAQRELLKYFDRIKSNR

[4] = target: T3, GST-Sed5 SNARE domain (aa170-319) (S. cerevisiae, UniProt Q01590 170-319); experiment: pull-down; re-assembly with added SNAREs: as a9, but soluble Qb, Qc and R-SNAREs (~3 µM each) added along with the EDTA quench, 30 min at 30°C
T3 construct: Sed5, Golgi Qa-SNARE, S. cerevisiae, aa170-319, lacks the N-peptide, the Habc domain and the transmembrane domain; also called Golgi Qa-SNARE lacking N-peptide and Habc domain; not shown: GST, N-terminal, kept
T3 sequence (looked up): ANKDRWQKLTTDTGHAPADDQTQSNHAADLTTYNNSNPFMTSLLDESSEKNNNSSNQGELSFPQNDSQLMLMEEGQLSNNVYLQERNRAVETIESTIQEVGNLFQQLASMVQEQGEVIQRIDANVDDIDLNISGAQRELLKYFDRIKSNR

B1: His7-MBP-Vti1 (soluble domain, aa1-194) (domain or fragment, S. cerevisiae, UniProt Q04338 1-194, looked up)
chain: MSSLLISYESDFKTTLEQAKASLAEAPSQPLSQRNTTLKHVEQQQDELFDLLDQMDVEVNNSIGDASERATYKAKLREWKKTIQSDIKRPLQSLVDSGDRDRLFGDLNASNIDDDQRQQLLSNHAILQKSGDRLKDASRIANETEGIGSQIMMDLRSQRETLENARQTLFQADSYVDKSIKTLKTMTRRLVANK
notes: Vti1, vacuole Qb-SNARE, S. cerevisiae, soluble domain aa1-194; also called vacuole Qb-SNARE; source: E. coli (pRIL plasmid), purified (Ni-NTA); not shown: His7, N-terminal, kept; MBP, N-terminal, kept
[1]
  binding result: binds

B2: His6-GFP-Vam7 SNARE domain (aa190-316) (domain or fragment, S. cerevisiae, UniProt P32912 190-316, looked up)
chain: PSTEVTRRAALLRSLLKECDDIGTANIAQDRGRLLGVATSDNSSTTEVQGRTNNDLQQGQMQMVRDQEQELVALHRIIQAQRGLALEMNEELQTQNELLTALEDDVDNTGRRLQIANKKARHFNNSA
notes: Vam7, vacuole Qc-SNARE, S. cerevisiae, SNARE domain aa190-316; also called vacuole Qc-SNARE; source: E. coli (pRIL plasmid), purified (Ni-NTA); not shown: His6, N-terminal, kept; GFP (A207K), N-terminal, kept
[2]
  binding result: binds

B3: His7-MBP-Bet1 (soluble domain, aa1-123) (domain or fragment, S. cerevisiae, UniProt P22804 1-123, looked up)
chain: MSSRFAGGNAYQRDTGRTQLFGPADGSNSLDDNVSSALGSTDKLDYSQSTLASLESQSEEQMGAMGQRIKALKSLSLKMGDEIRGSNQTIDQLGDTFHNTSVKLKRTFGNMMEMARRSGISIK
notes: Bet1, Golgi Qc-SNARE, S. cerevisiae, soluble domain aa1-123; also called Golgi Qc-SNARE; source: E. coli (pRIL plasmid), purified (Ni-NTA); not shown: His7, N-terminal, kept; MBP, N-terminal, kept
[3]
  binding result: binds
[4]
  binding result: binds

B4: His6-Bos1 (soluble domain, aa1-222) (domain or fragment, S. cerevisiae, UniProt P25385 1-222, looked up)
chain: MNALYNHAVKQKNQLQQELARFEKNSVTAPISLQGSISATLVSLEKTVKQYAEHLNRYKEDTNAEEIDPKFANRLATLTQDLHDFTAKFKDLKQSYNENNSRTQLFGSGASHVMDSDNPFSTSETIMNKRNVGGASANGKEGSSNGGGLPLYQGLQKEQSVFERGNAQLDYILEMGQQSFENIVEQNKILSKVQDRMSNGLRTLGVSEQTITSINKRVFKDK
notes: Bos1, Golgi Qb-SNARE, S. cerevisiae, soluble domain aa1-222; also called Golgi Qb-SNARE; source: E. coli Rosetta2 pLys, purified (Ni-NTA); not shown: His6, N-terminal, kept
[3]
  binding result: binds

B5: His6-Sec22 (soluble domain, aa1-188) (domain or fragment, S. cerevisiae, UniProt P22214 1-188, looked up)
chain: MIKSTLIYREDGLPLCTSVDNENDPSLFEQKQKVKIVVSRLTPQSATEATLESGSFEIHYLKKSMVYYFVICESGYPRNLAFSYLNDIAQEFEHSFANEYPKPTVRPYQFVNFDNFLQMTKKSYSDKKVQDNLDQLNQELVGVKQIMSKNIEDLLYRGDSLDKMSDMSSSLKETSKRYRKSAQKINFD
notes: Sec22, Golgi R-SNARE, S. cerevisiae, soluble domain aa1-188; also called Golgi R-SNARE; source: E. coli (pRIL plasmid), purified (Ni-NTA); not shown: His6, N-terminal, kept
[3]
  binding result: binds

B6: His6-Nyv1 (soluble domain, aa1-231) (domain or fragment, S. cerevisiae, UniProt Q12255 1-231, looked up)
chain: MKRFNVSYVEVIKNGETISSCFQPFQKNENYGTITSANEQITPVIFHNLIMDMVLPKVVPIKGNKVTKMSMNLIDGFDCFYSTDDHDPKTVYVCFTLVDMPKILPIRILSGLQEYESNATNELLSSHVGQILDSFHEELVEYRNQTLNSSGNGQSSNGNGQNTISDIGDATEDQIKDVIQIMNDNIDKFLERQERVSLLVDKTSQLNSSSNKFRRKAVNIKEIMWWQKVKN
notes: Nyv1, vacuole R-SNARE, S. cerevisiae, soluble domain aa1-231; also called vacuole R-SNARE; source: E. coli (pRIL plasmid), purified (Ni-NTA); not shown: His6, N-terminal, kept
[2]
  binding result: binds
